Source: publication PMC7042329, “AMPK-dependent activation of the Cyclin Y/CDK16 complex controls autophagy” (Nature Communications, 2020)

Biological target: T1, Cyclin Y-Flag (human, UniProt Q8ND76-1 1-341)
T1 construct: Cyclin Y, human, isoform 1 (CCNYiso1 cDNA clone in pcDNA3-FLAG); In cells partly phosphorylated at S326 (more after AICAR/A769662) and at S336; also called Cyclin Y-Flag-wt; wild-type Cyclin Y; source: HeLa or U2OS, transfected, in lysate
Assay: co-IP; HeLa cells transfected with Cyclin Y-Flag, with or without GFP-tagged CDK; with or without 0.5 mM AICAR/50 µM A769662 for 1 h; lysate in Frackelton buffer, anti-FLAG M2 beads 2 h at 4 °C, three washes, immunoblot
Settings: partners not purified

T1 sequence (Q8ND76 whole entry, canonical isoform): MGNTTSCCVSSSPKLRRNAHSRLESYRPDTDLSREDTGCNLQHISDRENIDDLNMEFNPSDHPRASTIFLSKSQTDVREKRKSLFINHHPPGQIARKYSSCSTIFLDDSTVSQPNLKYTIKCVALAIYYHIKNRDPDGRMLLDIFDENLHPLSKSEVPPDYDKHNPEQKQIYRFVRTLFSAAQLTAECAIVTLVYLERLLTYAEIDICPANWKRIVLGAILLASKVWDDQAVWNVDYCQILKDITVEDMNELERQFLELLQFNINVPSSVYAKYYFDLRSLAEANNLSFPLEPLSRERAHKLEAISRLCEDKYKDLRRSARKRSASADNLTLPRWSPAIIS

- fold change of co-immunoprecipitated CDK16 with AICAR/A769662 against untreated: 2 fold
B1: GFP-CDK16 (enzyme)
chain: not shown
notes: Cyclin-dependent kinase 16 (CDK16), human, isoform 1; also called GFP-CDK16-wt; PCTAIRE1; source: HeLa, transfected, in lysate
